According to US20020107366A1 (JURIDICAL FOUNDATION THE CHEMO SERO THERAPEUTIC RESEARCH …, published 2002):

B1: FLAF p35 (ligand)
chain: RNLPTPTPSPGMFQCLNHSQTLLRAISNTLQKARQTLEFYSCTSEEIDHEDITKDKTSTVEACLPLELTMNESCLASREISLITNGSCLASRKTSFMTTLCLSSIYEDLKMYQVEFKAMNAKLLMDPKRQIFLDQNMLTAIDELLQALNVNSVTVPQNSSLEEPDFYKTKIKLCILLHAFRIRAVTINRMMSYLNSS
notes: also called protein with a molecular weight of about 35,000
B2: FLAF p40 (ligand)
chain: IWELEKNVYVVELDWHPDAPGEMVVLTCNTPEEDDITWTSDQSSEVLGSGKTLTIQVKEFADAGQYTCHKGGEVLSHSFLLIHKKEDGIWSTDILREQKESKNKIFLKCEAKNYSGRFTCWWLTAISTDLKFTVKSSRGSSDPQGVTCGAATLSAEKVRVDNRDYKKYTVECQEGSACPAAEESLPIEVVVDAIHKLKYENYTSSFFIRDIIKPDPPKNLQLKPLKNSRHVEVSWEYPDTWSTPHSYFSLTFGVQVQGKNNREKKDRLSVDKTSAKVVCHKDAKIRVQARDRYYSSSWSNWASVSCS
notes: also called protein with a molecular weight of about 40,000

How the values were obtained:
FLAF p40 = target: B2; experiment: non-reducing SDS-PAGE and Western blot with anti-p35 and anti-p40 antibodies; subunit association
Protocol: These bands were analyzed by Western blot as described in Example 2 wherein two membranes were prepared, i.e. one using a monoclonal antibody against the partial synthetic peptide of FLAF p35 produced by the clone F18-4 as described in Example 12 as a primary antibody and another using the antibody against FLAF p40 as described in Example 11. As a result, both p75 and p80 reacted with both antibodies to confirm that they are both heterologous dimer of FLAF p35 and FLAF p40.

[1] = target: the molecule itself; experiment: Western blot of culture supernatant of COS7 cells transfected with CAGfp40; self-association of p40
Protocol: The day (20 hours) before transfection, COS7 cells were plated on a 6 well plate at 2×10⁵ cells/well. On the next day, Lipofect Ace reagent was mixed with the expression plasmid (1 μg of cAGf40 per well) and the mixture was left to stand at room temperature for 15 minutes and then added to the COS7 cells, followed by addition of serum free medium Opti-MEM (0.8 ml). On the next day, 2 ml of serum free medium (ASF104; Ajinomoto K. K.) was added and culture was continued for additional 2 days and then culture supernatant was recovered. A portion of the supernatant was subjected to Western blot as described in Example 11 to detect expression products which reacted with polyclonal antibodies which recognize FLAF p40. As a result, bands corresponding to FLAF p40 reactive with anti-FLAF p40 antibody (MW about 40,000) and to a homologous dimer thereof (MW about 80,000) were detected (FIG. 11).
A polyclonal antibody against FLAF p40 was prepared by injecting each 1 ml of the FLAF p40 expression plasmid (CAGfp40) (1 mg/ml; Example 5) intramuscularly into both rear legs of a rabbit four times at every 3 weeks. Western blot was used to determine whether the obtained antibody recognized FLAF p40 (FIG. 16). First, purified FLAF was subjected to SDS-PAGE in the absence of 2-mercaptoethanol and then transferred to PVDF membrane as described in Example 3. […]

| binding result (FLAF p40) | Binder | binding result [1] |
| --- | --- | --- |
| binds | B1 |  |
|  | B2 | binds |
